Results as given in article PMC4210448.

Biological target: Map205 (UniProt P23226)
Assay: PrA-Map205 affinity purification, GFP blot
Conditions: reference: Polo WT-GFP with Aurora B–Myc; sites T182

Substance: Polo (from UniProt P52304) Polo T182A-GFP with Aurora B–Myc
- binding against the reference: stronger
